Data reported in article PMC10284548.

Columns and labels:
[1] = molecular target: AsLOV2; test: single-molecule force spectroscopy (dual-beam optical tweezers); constant load of 11 or 16 pN, dark; AsLOV2 and Zdk2 on one chain joined by (GGS)42, tethered by DNA handles between two beads; PBS, 1 mM TCEP, pH 7.4
[2] = molecular target: AsLOV2; test: single-molecule force spectroscopy (dual-beam optical tweezers); constant load of 11 or 16 pN under 488-nm light (laser intensity 3 and 30%, pooled); AsLOV2 and Zdk2 on one chain joined by (GGS)42; PBS, 1 mM TCEP, pH 7.4
[3] = molecular target: AsLOV2(V416L); test: single-molecule force spectroscopy (dual-beam optical tweezers); jump experiments between 0 and 20.5 ± 1 pN to obtain unbinding and rebinding lifetimes; AsLOV2 and Zdk2 on one chain joined by (GGS)42; PBS, 1 mM TCEP, pH 7.4
[4] = molecular target: AsLOV2; test: as above
[5] = molecular target: AsLOV2(V416L); test: single-molecule force spectroscopy (dual-beam optical tweezers); constant velocity (force-extension) experiments, 200 and 500 nm/s; AsLOV2 and Zdk2 on one chain joined by (GGS)42, tethered by DNA handles between two beads; PBS, 1 mM TCEP, pH 7.4, oxygen scavenger; dark
[6] = molecular target: AsLOV2; test: as above

- average lifetime of the bound state at 11 pN, without light [1]: 174 s
- average lifetime of the bound state at 16 pN, without light [1]: 74 s
- percent of experiments at 11 pN without dissociation within 9 min [1]: 30%
- average lifetime of the bound state at 11 pN, with 488-nm light [2]: 47 s
- average lifetime of the bound state at 16 pN, with 488-nm light [2]: 45 s
- average lifetime of the peptide-bound state under force [3]: 0.18 s
- rebinding time at zero force [3]: 0.44 s
- average lifetime of the peptide-bound state under force [4]: 0.56 s
- rebinding time at zero force [4]: 0.13 s
- unbinding force [5]: 22 pN
- unbinding force [6]: 24 pN
Substance: Zdk2 (designed binder)
